Source: patent US20240026037A1

Tests used:
[1] = biological target: Human GPA33 on GPA33+ colorectal cancer cell lines (Colo 205, LS 174T, SW 1222) (human) (UniProt Q99795); test: cell binding to LS174T Luc cells; IgG format
[2] = biological target: Human GPA33 on GPA33+ colorectal cancer cell lines (Colo 205, LS 174T, SW 1222) (human) (UniProt Q99795); test: cell binding to SW1222 Luc cells; IgG format
[3] = biological target: Human GPA33 (recombinant protein, Novoprotein) (human) (UniProt Q99795); test: SPR (Biacore), binding to GPA33 protein; IgG format
Human GPA33 (recombinant protein, Novoprotein) (human), sequence (Q99795 22-235 limits assumed): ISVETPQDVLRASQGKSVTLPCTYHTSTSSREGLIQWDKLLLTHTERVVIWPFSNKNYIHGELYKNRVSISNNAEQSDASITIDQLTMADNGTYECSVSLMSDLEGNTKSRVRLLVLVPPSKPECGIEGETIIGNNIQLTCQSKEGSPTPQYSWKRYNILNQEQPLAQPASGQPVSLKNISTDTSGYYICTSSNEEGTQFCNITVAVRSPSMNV

Human GPA33 on GPA33+ colorectal cancer cell lines (Colo 205, LS 174T, SW 1222) (human), sequence (Q99795 22-319 limits assumed): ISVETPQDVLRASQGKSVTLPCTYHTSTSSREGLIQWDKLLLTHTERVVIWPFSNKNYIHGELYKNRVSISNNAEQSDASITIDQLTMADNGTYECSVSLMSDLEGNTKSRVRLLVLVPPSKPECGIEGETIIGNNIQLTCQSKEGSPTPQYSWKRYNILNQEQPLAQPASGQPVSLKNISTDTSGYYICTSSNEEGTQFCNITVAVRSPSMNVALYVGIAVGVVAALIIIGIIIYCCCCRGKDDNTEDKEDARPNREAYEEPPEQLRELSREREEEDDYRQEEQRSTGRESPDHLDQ

B1: G3A_VK1+VH1 (antibody, IgG1, V domains shown, part only)
VH: EVQLVESGGGLVKPGGSLRLSCAASGFAFSTYDMSWVRQAPGKGLEWVSTISSGGSYTYYADSVKGRFTISRDNAKNSLYLQMNSLRAEDTAVYYCAPTTVVPFAYWGQGTLVTVSA
VL: DIQMTQSPSSLSASVGDRVTITCKASQNVRTVVAWYQQKPGKAPKRLIYLASNRHTGVPSRFSGSGSGTEFTLTISNLQPEDFATYYCLQHWSYPLTFGSGTKLEVK
modifications: IgG1 constant regions not given
EC50 [1]: 1.12 µg/mL | EC50 [2]: 1.51 µg/mL | Kd [3]: 0.87 nM

B2: G3A_VK2+VH2 (antibody, IgG1, V domains shown, part only)
VH: EVQLVESGGGLVKPGGSLRLSCAASGFAFSTYDMSWVRQAPGKGLEWVATISSGGSYTYYLDSVKGRFTISRDSAKNSLYLQMNSLRAEDTAVYYCAPTTVVPFAYWGQGTLVTVSA
VL: DIQMTQSPSSLSTSVGDRVTITCKASQNVRTVVAWYQQKPGKAPKTLIYLASSLQSGVPSRFSGSGSGTEFTLTISNVQPEDFADYFCLQHWSYPLTFGSGTKLEVK
modifications: IgG1 constant regions
Kd [3]: 9.54 nM

B3: G3A_VK1+VH3 (antibody, IgG1, V domains shown, part only)
VH: EVQLVESGGGLVKPGGSLRLSCAASGFAFSTYDMSWVRQAPGKGLEWVATISSGGSYTYYADSVKGRFTISRDSAKNSLYLQMNSLRAEDTAVYYCAPTTVVPFAYWGQGTLVTVSA
VL: DIQMTQSPSSLSASVGDRVTITCKASQNVRTVVAWYQQKPGKAPKRLIYLASNRHTGVPSRFSGSGSGTEFTLTISNLQPEDFATYYCLQHWSYPLTFGSGTKLEVK
modifications: IgG1 constant regions
EC50 [1]: 1.78 µg/mL | EC50 [2]: 1.32 µg/mL | Kd [3]: 1.49 nM

B4: G3A_VK2+VH1 (antibody, IgG1, V domains shown, part only)
VH: EVQLVESGGGLVKPGGSLRLSCAASGFAFSTYDMSWVRQAPGKGLEWVSTISSGGSYTYYADSVKGRFTISRDNAKNSLYLQMNSLRAEDTAVYYCAPTTVVPFAYWGQGTLVTVSA
VL: DIQMTQSPSSLSTSVGDRVTITCKASQNVRTVVAWYQQKPGKAPKTLIYLASSLQSGVPSRFSGSGSGTEFTLTISNVQPEDFADYFCLQHWSYPLTFGSGTKLEVK
modifications: IgG1 constant regions not given
EC50 [1]: 1.2 µg/mL | Kd [3]: 5.8 nM

B5: G3A_VK2+VH3 (antibody, IgG1, V domains shown, part only)
VH: EVQLVESGGGLVKPGGSLRLSCAASGFAFSTYDMSWVRQAPGKGLEWVATISSGGSYTYYADSVKGRFTISRDSAKNSLYLQMNSLRAEDTAVYYCAPTTVVPFAYWGQGTLVTVSA
VL: DIQMTQSPSSLSTSVGDRVTITCKASQNVRTVVAWYQQKPGKAPKTLIYLASSLQSGVPSRFSGSGSGTEFTLTISNVQPEDFADYFCLQHWSYPLTFGSGTKLEVK
modifications: IgG1 constant regions not given
EC50 [2]: 1.89 µg/mL | Kd [3]: 8.39 nM

B6: G3A_VK1+VH2 (antibody, IgG1, V domains shown, part only)
VH: EVQLVESGGGLVKPGGSLRLSCAASGFAFSTYDMSWVRQAPGKGLEWVATISSGGSYTYYLDSVKGRFTISRDSAKNSLYLQMNSLRAEDTAVYYCAPTTVVPFAYWGQGTLVTVSA
VL: DIQMTQSPSSLSASVGDRVTITCKASQNVRTVVAWYQQKPGKAPKRLIYLASNRHTGVPSRFSGSGSGTEFTLTISNLQPEDFATYYCLQHWSYPLTFGSGTKLEVK
modifications: IgG1 constant regions
EC50 [1]: 0.654 µg/mL | EC50 [2]: 0.991 µg/mL | Kd [3]: 1.73 nM

B7: G3A_VK4+VH2 (antibody, IgG1, V domains shown, part only)
VH: EVQLVESGGGLVKPGGSLRLSCAASGFAFSTYDMSWVRQAPGKGLEWVATISSGGSYTYYLDSVKGRFTISRDSAKNSLYLQMNSLRAEDTAVYYCAPTTVVPFAYWGQGTLVTVSA
VL: DIQMTQSPSSLSASVGDRVTITCKASQNVRTVVAWYQQKPGKAPKTLIYLASNRHTGVPSRFSGSGSGTEFTLTISNLQPEDFATYYCLQHWSYPLTFGSGTKLEVK
modifications: IgG1 constant regions not given
EC50 [1]: 0.364 µg/mL | EC50 [2]: 0.314 µg/mL | Kd [3]: 0.229 nM

B8: G3A_VK3+VH2 (antibody, IgG1, V domains shown, part only)
VH: EVQLVESGGGLVKPGGSLRLSCAASGFAFSTYDMSWVRQAPGKGLEWVATISSGGSYTYYLDSVKGRFTISRDSAKNSLYLQMNSLRAEDTAVYYCAPTTVVPFAYWGQGTLVTVSA
VL: DIQMTQSPSSLSTSVGDRVTITCKASQNVRTVVAWYQQKPGKAPKTLIYLASNRHSGVPSRFSGSGSGTEFTLTISNLQPEDFATYYCLQHWSYPLTFGSGTKLEVK
modifications: IgG1 constant regions not given
EC50 [1]: 0.381 µg/mL | EC50 [2]: 0.383 µg/mL | Kd [3]: 0.241 nM
